Read-outs that look alike come from different tables or passages of the source.
Assays:
[1] = target: MOP receptor stably expressed in CHO-K1 cells (plasma membranes) (UniProt P35372); assay: radioligand binding
[2] = target: MOP receptor stably expressed in CHO-K1 cells (plasma membranes) (UniProt P35372); assay: radioligand binding; remark: listed apart in the source

UniProt P35372, sequence (P35372 whole entry): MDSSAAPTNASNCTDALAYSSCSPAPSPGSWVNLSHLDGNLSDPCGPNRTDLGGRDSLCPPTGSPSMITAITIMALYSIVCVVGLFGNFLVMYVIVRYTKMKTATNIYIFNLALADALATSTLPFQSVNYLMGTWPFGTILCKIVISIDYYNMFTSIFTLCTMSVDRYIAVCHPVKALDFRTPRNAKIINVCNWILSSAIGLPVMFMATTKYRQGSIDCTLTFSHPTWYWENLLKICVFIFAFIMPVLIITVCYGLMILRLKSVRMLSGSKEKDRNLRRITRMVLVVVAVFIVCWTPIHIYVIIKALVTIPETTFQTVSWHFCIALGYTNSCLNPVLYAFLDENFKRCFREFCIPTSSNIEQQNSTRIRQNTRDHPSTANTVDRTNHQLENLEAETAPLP

DAMGO, [D-Ala^2, NMePHe^4, Gly^5-ol]enkephalin (peptide)
Ki [1]: 6.7 nM
Ki [2]: 11 nM

Source: paper PMC2650857
